Measured values reported in publication PMC5241874.

Substrate: O=C(O)CC(C(=O)O)C(O)C(=O)O
Test: purified protein
Format: biochemical, Homo sapiens
Details: no activators, 2 mM Mn2+, 3.2 mM NAD, 33 mM Tris-acetate pH 7.4, 25 °C, Hill 2.0, racemic DL-ICT varied

B1: αγ heterodimer of human NAD-IDH (IDH3) (Homo sapiens) (protein)
chain 1: TGGVQTVTLIPGDGIGPEISAAVMKIFDAAKAPIQWEERNVTAIQGPGGKWMIPSEAKESMDKNKMGLKGPLKTPIAAGHPSMNLLLRKTFDLYANVRPCVSIEGYKTPYTDVNIVTIRENTEGEYSGIEHVIVDGVVQSIKLITEGASKRIAEFAFEYARNNHRSNVTAVHKANIMRMSDGLFLQKCREVAESCKDIKFNEMYLDTVCLNMVQDPSQFDVLVMPNLYGDILSDLCAGLIGGLGVTPSGNIGANGVAIFESVHGTAPDIAGKDMANPTALLLSAVMMLRHMGLFDHAARIEAACFATIKDGKSLTKDLGGNAKCSDFTEEICRRVKDLD
chain 2: FSEQTIPPSAKYGGRHTVTMIPGDGIGPELMLHVKSVFRHACVPVDFEEVHVSSNADEEDIRNAIMAIRRNRVALKGNIETNHNLPPSHKSRNNILRTSLDLYANVIHCKSLPGVVTRHKDIDILIVRENTEGEYSSLEHESVAGVVESLKIITKAKSLRIAEYAFKLAQESGRKKVTAVHKANIMKLGDGLFLQCCREVAARYPQITFENMIVDNTTMQLVSRPQQFDVMVMPNLYGNIVNNVCAGLVGGPGLVAGANYGHVYAVFETATRNTGKSIANKNIANPTATLLASCMMLDHLKLHSYATSIRKAVLASMDNENMHTPDIGGQGTTSEAIQDVIRHIRVINGRAVEA
notes: alpha and gamma co-expressed in E. coli BL21(DE3) from pQlinkN; gamma C-terminal TEV-His6, His6 cleaved by TEV; 80 kDa heterodimer (dimer of heterodimers at high concentration)
B1 gave a K0.5 of 4.49 ± 0.15 mM and a kcat/Km of 2160 ± 30 M⁻¹ s⁻¹.

B2: αγ heterodimer of human NAD-IDH (IDH3) (Homo sapiens; P50213:N202A) (protein)
chain 1: TGGVQTVTLIPGDGIGPEISAAVMKIFDAAKAPIQWEERNVTAIQGPGGKWMIPSEAKESMDKNKMGLKGPLKTPIAAGHPSMNLLLRKTFDLYANVRPCVSIEGYKTPYTDVNIVTIRENTEGEYSGIEHVIVDGVVQSIKLITEGASKRIAEFAFEYARNNHRSNVTAVHKAAIMRMSDGLFLQKCREVAESCKDIKFNEMYLDTVCLNMVQDPSQFDVLVMPNLYGDILSDLCAGLIGGLGVTPSGNIGANGVAIFESVHGTAPDIAGKDMANPTALLLSAVMMLRHMGLFDHAARIEAACFATIKDGKSLTKDLGGNAKCSDFTEEICRRVKDLD
chain 2: FSEQTIPPSAKYGGRHTVTMIPGDGIGPELMLHVKSVFRHACVPVDFEEVHVSSNADEEDIRNAIMAIRRNRVALKGNIETNHNLPPSHKSRNNILRTSLDLYANVIHCKSLPGVVTRHKDIDILIVRENTEGEYSSLEHESVAGVVESLKIITKAKSLRIAEYAFKLAQESGRKKVTAVHKANIMKLGDGLFLQCCREVAARYPQITFENMIVDNTTMQLVSRPQQFDVMVMPNLYGNIVNNVCAGLVGGPGLVAGANYGHVYAVFETATRNTGKSIANKNIANPTATLLASCMMLDHLKLHSYATSIRKAVLASMDNENMHTPDIGGQGTTSEAIQDVIRHIRVINGRAVEA
notes: as for B1
Work on B2 yielded a K0.5 (Hill 1.2) of 5.80 ± 0.84 mM and a kcat/Km (Hill 1.2) of 290 ± 10 M⁻¹ s⁻¹.

B3: αγ heterodimer of human NAD-IDH (IDH3) (Homo sapiens; P50213:K200A) (protein)
chain 1: TGGVQTVTLIPGDGIGPEISAAVMKIFDAAKAPIQWEERNVTAIQGPGGKWMIPSEAKESMDKNKMGLKGPLKTPIAAGHPSMNLLLRKTFDLYANVRPCVSIEGYKTPYTDVNIVTIRENTEGEYSGIEHVIVDGVVQSIKLITEGASKRIAEFAFEYARNNHRSNVTAVHAANIMRMSDGLFLQKCREVAESCKDIKFNEMYLDTVCLNMVQDPSQFDVLVMPNLYGDILSDLCAGLIGGLGVTPSGNIGANGVAIFESVHGTAPDIAGKDMANPTALLLSAVMMLRHMGLFDHAARIEAACFATIKDGKSLTKDLGGNAKCSDFTEEICRRVKDLD
chain 2: FSEQTIPPSAKYGGRHTVTMIPGDGIGPELMLHVKSVFRHACVPVDFEEVHVSSNADEEDIRNAIMAIRRNRVALKGNIETNHNLPPSHKSRNNILRTSLDLYANVIHCKSLPGVVTRHKDIDILIVRENTEGEYSSLEHESVAGVVESLKIITKAKSLRIAEYAFKLAQESGRKKVTAVHKANIMKLGDGLFLQCCREVAARYPQITFENMIVDNTTMQLVSRPQQFDVMVMPNLYGNIVNNVCAGLVGGPGLVAGANYGHVYAVFETATRNTGKSIANKNIANPTATLLASCMMLDHLKLHSYATSIRKAVLASMDNENMHTPDIGGQGTTSEAIQDVIRHIRVINGRAVEA
notes: as for B1
B3 was tested, and the K0.5 (Hill 1.2) was 6.38 ± 1.27 mM and the kcat/Km (Hill 1.2) was 380 ± 30 M⁻¹ s⁻¹.
